The results in this text go back to article PMC3814645 (Genes & Development, 2013).

This test deals with eIF4E (endogenous) (human (endogenous in HCT116), UniProt P06730 1-217). Kind of test: co-IP.
eIF4E (endogenous), sequence (P06730 whole entry): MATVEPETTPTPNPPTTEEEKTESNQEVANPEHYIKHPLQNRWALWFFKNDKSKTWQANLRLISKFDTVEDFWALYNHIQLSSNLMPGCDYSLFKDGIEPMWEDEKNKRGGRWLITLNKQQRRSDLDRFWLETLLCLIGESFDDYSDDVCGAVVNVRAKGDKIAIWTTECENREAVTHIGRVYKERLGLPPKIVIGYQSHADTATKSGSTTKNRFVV

B1: p-RNPC1 (endogenous RNPC1 phosphorylated at Ser195) (natural protein, human (endogenous in HCT116 and RKO), UniProt Q9H0Z9 1-239, looked up)
chain: MLLQPAPCAPSAGFPRPLAAPGAMHGSQKDTTFTKIFVGGLPYHTTDASLRKYFEGFGDIEEAVVITDRQTGKSRGYGFVTMADRAAAERACKDPNPIIDGRKANVNLAYLGAKPRSLQTGFAIGVQQLHPTLIQRTYGLTPHYIYPPAIVQPSVVIPAAPVPSLSSPYIEYTPASPAYAQYPPATYDQYPYAASPATAASFVGYSYPAAVPQALSAAAPAGTTFVQYQAPQLQPDRMQ
modifications: phosphoserine at 195
With B1, the “ratio of p-RNPC1 versus RNPC1 in anti-eIF4E immunocomplexes” value was found to be 0.12.
